Test results: patent US20250304927A1, “PRO-PEPTIDE VARIANTS FOR MODULATING ACTIVITY OF TRANSGLUTAMINASES” (CURIE CO. INC., priority 2022, published 2025)

T1: thermostable variant of Streptomyces mobaraensis transglutaminase (Streptomyces mobaraensis, UniProt P81453 79-407)
T1 sequence: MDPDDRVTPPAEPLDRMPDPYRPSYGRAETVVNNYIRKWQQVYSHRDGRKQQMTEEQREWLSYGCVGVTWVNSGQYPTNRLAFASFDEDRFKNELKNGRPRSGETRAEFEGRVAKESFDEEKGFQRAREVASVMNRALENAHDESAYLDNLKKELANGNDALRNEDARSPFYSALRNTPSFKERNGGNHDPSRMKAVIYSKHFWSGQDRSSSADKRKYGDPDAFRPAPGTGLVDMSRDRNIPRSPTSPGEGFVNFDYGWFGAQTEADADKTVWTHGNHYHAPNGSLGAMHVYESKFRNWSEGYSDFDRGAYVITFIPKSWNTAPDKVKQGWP


Tests used:
Assay in all cases: cell-based or functional assay
[1] = target: T1, thermostable variant of Streptomyces …
[2] = target: T1, thermostable variant of Streptomyces …; remark: listed apart in the source
[3] = target: T1, thermostable variant of Streptomyces …; remark: listed apart in the source

Binder	Reduction in binding affinity of inhibitory peptide relative to WT [1]	Improvement in pH responsiveness of inhibitory peptide relative to WT [2]	Improvement in binding affinity of inhibitory peptide relative to WT [3]
MDNGAGEGTKSYAETYRLTADDVANINALNESAPAASSAGPSFRAP [pro-peptide variant E8G]	> 1.2 fold	> 1.2 fold	–
MDNGAGEETKSYAATYRLTADDVANINALNESAPAASSAGPSFRAP [pro-peptide variant E14A]	> 1.2 fold	–	–
MDNGAGEETCSYAETYRLTADDVANINALNESAPAASSAGPSFRAP [pro-peptide variant K10C]	> 1.2 fold	–	–
MDNGAGEETKSYAETYRLTADDVANINALNESAPAASDAGPSFRAP [pro-peptide variant S38D]	> 1.2 fold	–	–
MDNGAGEETKSYAETYRLTADDVANINALNESAPAASPAGPSFRAP [pro-peptide variant S38P]	> 1.2 fold	–	–
MDNGAGEETKSYAETYRLTADDVANENALNESAPAASSAGPSFRAP [pro-peptide variant I26E]	> 1.2 fold	–	–
MDNGAGEETKSPAETYRLTADDVANINALNESAPAASSAGPSFRAP [pro-peptide variant Y12P]	> 1.2 fold	–	–
MDNGAGEETKSLAETYRLTADDVANINALNESAPAASSAGPSFRAP [pro-peptide variant Y12L]	> 1.2 fold	> 1.2 fold	–
MDNGAGEETKSYAETYRLTADRVANINALNESAPAASSAGPSFRAP [pro-peptide variant D22R]	> 1.2 fold	–	–
MDNGAGEETKSYAETYRLTADDVPNINALNESAPAASSAGPSFRAP [pro-peptide variant A24P]	> 5 fold	–	–
MDNGAGEETKSYACTYRLTADDVANINALNESAPAASSAGPSFRAP [pro-peptide variant E14C]	> 1.2 fold	–	–
MDNGAGEETKSYAHTYRLTADDVANINALNESAPAASSAGPSFRAP [pro-peptide variant E14H]	> 1.2 fold	–	–
MDNGAGEETKLYAETYRLTADDVANINALNESAPAASSAGPSFRAP [pro-peptide variant S11L]	> 1.2 fold	> 1.2 fold	–
MDNGAGEYTKSYAETYRLTADDVANINALNESAPAASSAGPSFRAP [pro-peptide variant E8Y]	> 1.2 fold	> 1.2 fold	–
MDNGAGEETKKYAETYRLTADDVANINALNESAPAASSAGPSFRAP [pro-peptide variant S11K]	> 1.2 fold	> 1.2 fold	–
MDNGAGEETKSSAETYRLTADDVANINALNESAPAASSAGPSFRAP [pro-peptide variant Y12S]	> 5 fold	–	–
MDNGAGEEQKSYAETYRLTADDVANINALNESAPAASSAGPSFRAP [pro-peptide variant T9Q]	> 1.2 fold	> 1.2 fold	–
MDNGAGEETKDYAETYRLTADDVANINALNESAPAASSAGPSFRAP [pro-peptide variant S11D]	> 1.2 fold	> 1.2 fold	–
MDNGAGEETKYYAETYRLTADDVANINALNESAPAASSAGPSFRAP [pro-peptide variant S11Y]	> 1.2 fold	–	–
MDNGAGEETRSYAETYRLTADDVANINALNESAPAASSAGPSFRAP [pro-peptide variant K10R]	> 1.2 fold	> 1.2 fold	–
MDNGAGEETKSYAETYRLTADDVANANALNESAPAASSAGPSFRAP [pro-peptide variant I26A]	> 1.2 fold	–	–
MDNGAGEETKSGAETYRLTADDVANINALNESAPAASSAGPSFRAP [pro-peptide variant Y12G]	> 1.2 fold	> 1.2 fold	–
MDNGAGEETDSYAETYRLTADDVANINALNESAPAASSAGPSFRAP [pro-peptide variant K10D]	> 1.2 fold	> 1.2 fold	–

Binder	Reduction in binding affinity of inhibitory peptide relative to WT [1]	Improvement in pH responsiveness of inhibitory peptide relative to WT [2]	Improvement in binding affinity of inhibitory peptide relative to WT [3]
MDNGAGEETKSYAETYRLTADDVANINALNESAPAASSAGPSFRAR [pro-peptide variant P46R]	–	> 1.2 fold	> 1.2 fold
MDNGAGEETKSYAETYRSTADDVANINALNESAPAASSAGPSFRAP [pro-peptide variant L18S]	> 1.2 fold	–	–
MDNGAGEETKSYAETYRETADDVANINALNESAPAASSAGPSFRAP [pro-peptide variant L18E]	> 1.2 fold	–	–
MDNGAGEETKSNAETYRLTADDVANINALNESAPAASSAGPSFRAP [pro-peptide variant Y12N]	> 1.2 fold	> 1.2 fold	–
MDNGAGEETKSYAETYRLTADDVANINALNESAPAASSAGPSFRAV [pro-peptide variant P46V]	–	> 1.2 fold	> 1.2 fold
MDNGAGEETKSYAETYRLTADQVANINALNESAPAASSAGPSFRAP [pro-peptide variant D22Q]	> 1.2 fold	–	–
MDNGAGEETGSYAETYRLTADDVANINALNESAPAASSAGPSFRAP [pro-peptide variant K10G]	> 1.2 fold	> 5 fold	–
MDNGAGEETKSYAETYRLTADDVANINALNESAPAASSAGPSFRAW [pro-peptide variant P46W]	–	> 1.2 fold	> 1.2 fold
MDNGAGEETKSYAETYRLTADDVANINALNESAPAASSAGPSFRAS [pro-peptide variant P46S]	–	> 1.2 fold	> 1.2 fold
MDNGAGEETKSYAETYRLTADPVANINALNESAPAASSAGPSFRAP [pro-peptide variant D22P]	> 1.2 fold	–	–
MDNGAGEETKSYAETYRLTADDVENINALNESAPAASSAGPSFRAP [pro-peptide variant A24E]	> 1.2 fold	–	–
MDNGAGEETKSYAETYRLTADYVANINALNESAPAASSAGPSFRAP [pro-peptide variant D22Y]	> 1.2 fold	–	–
MDNGAGGETKSYAETYRLTADDVANINALNESAPAASSAGPSFRAP [pro-peptide variant E7G]	> 1.2 fold	> 5 fold	–
MDNGAGEETKSYAETYRLTADDVANINALNESAPAASYAGPSFRAP [pro-peptide variant S38Y]	> 1.2 fold	–	–
MDNGAGEETKSTAETYRLTADDVANINALNESAPAASSAGPSFRAP [pro-peptide variant Y12T]	> 1.2 fold	> 1.2 fold	–
MDNGAGEETKSYADTYRLTADDVANINALNESAPAASSAGPSFRAP [pro-peptide variant E14D]	> 1.2 fold	–	–
MDNGAGEETKHYAETYRLTADDVANINALNESAPAASSAGPSFRAP [pro-peptide variant S11H]	> 1.2 fold	–	–
MDNGAGEETKGYAETYRLTADDVANINALNESAPAASSAGPSFRAP [pro-peptide variant S11G]	> 5 fold	–	–
MDNGAGEETKSYAETYR [pro-peptide truncation variant ΔL18-P46]	> 1.2 fold	> 5 fold	–
MDNGAGEETKSYAETYRLTADDVAN [pro-peptide truncation variant ΔI26-P46]	> 1.2 fold	> 1.2 fold	–
MDNGAGEETKS [pro-peptide truncation variant ΔY12-P46]	> 1.2 fold	> 1.2 fold	–
MDNGAGEETKSYAETYRLTAD [pro-peptide truncation variant ΔD22-P46]	> 1.2 fold	–	–
